Assay results taken from US20230235080A1, “TROPHOBLAST CELL-SURFACE ANTIGEN-2 (TROP-2) ANTIBODIES” (Bionecure Therapeutics, Inc., priority 2020, published 2023).

Assays:
mouse Trop-2-His [1] = biological target: T1, mouse Trop-2-His (mouse, UniProt Q8BGV3 25-270); assay: ELISA on coated antigen, one antibody dilution (concentration not given); on the sheet OD405, detected by GAM/H-AP
T1 sequence (looked up): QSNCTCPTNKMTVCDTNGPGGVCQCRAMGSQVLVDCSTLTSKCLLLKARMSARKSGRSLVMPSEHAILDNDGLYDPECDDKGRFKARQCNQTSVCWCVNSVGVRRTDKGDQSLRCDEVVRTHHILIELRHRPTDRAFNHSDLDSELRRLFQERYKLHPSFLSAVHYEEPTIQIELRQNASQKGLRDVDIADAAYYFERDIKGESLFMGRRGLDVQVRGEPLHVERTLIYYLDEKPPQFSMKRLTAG

human EPCAM-His [2] = biological target: T2, human EPCAM-His (human, UniProt P16422 24-265); assay: as above
T2 construct: also called hEPCAM
T2 sequence (looked up): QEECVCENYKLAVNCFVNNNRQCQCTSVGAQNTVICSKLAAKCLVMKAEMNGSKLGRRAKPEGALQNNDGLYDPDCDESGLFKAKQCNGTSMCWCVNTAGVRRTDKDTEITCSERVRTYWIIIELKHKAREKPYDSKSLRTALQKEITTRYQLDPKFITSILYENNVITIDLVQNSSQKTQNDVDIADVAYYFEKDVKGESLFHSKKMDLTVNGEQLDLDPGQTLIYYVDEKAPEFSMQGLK

[3] = biological target: T3, human Trop-2-ECD-6His fusion protein (Homo sapiens, UniProt P09758); assay: Antigen binding assay (ELISA) on immobilized Trop-2-ECD-6His
T3 construct: made in house; host or cells: human 293 cell line
T3 sequence (P09758 with tags, fused parts or gaps): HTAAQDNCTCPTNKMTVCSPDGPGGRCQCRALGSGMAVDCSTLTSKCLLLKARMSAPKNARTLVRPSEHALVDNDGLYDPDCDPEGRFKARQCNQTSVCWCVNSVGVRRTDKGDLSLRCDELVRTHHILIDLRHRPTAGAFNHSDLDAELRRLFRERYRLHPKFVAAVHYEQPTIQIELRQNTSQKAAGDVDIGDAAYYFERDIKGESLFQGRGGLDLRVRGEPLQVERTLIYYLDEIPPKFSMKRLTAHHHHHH
Procedure: Using the HCVR sequence and LCVR sequence of mAbs #118-2-5 and #125-1-5, two murine-human chimeric IgG1 (hereinafter “chimeric IgG1”) was prepared which comprised the heavy chain sequences set forth in SEQ ID NOs: 47 and 49, and the light chain sequences set forth in SEQ ID NOs: 48 and 50. Nucleic acids encoded by SEQ ID NO: 19, 20 and SEQ ID NO: 21, 22 were amplified and inserted into pTT5 to make an expression plasmid of the full-length IgG. The heavy chain and light chain expression plasmids were used to co-transfect 100 mL HEK293-6E cells. The recombinant IgG secreted into to media was purified using protein A affinity. The purified IgG migrated as ~150 kDa band in SDS-PAGE under non-reducing conditions, ~55 kDa and ~30 kDA bands under reducing condition. The purity of the chimeric IgG is >90%. The binding affinity between the chimeric IgGs and a human Trop-2-ECD-6His fusion protein (SEQ ID NO:2) was determined by ELISA. The Trop-2-ECD-6His fusion protein was immobilized on the surface of a microplate wells and incubated with the chimeric IgGs. A secondary enzyme-labeled goat-anti-mouse IgG-AP was then added. After washing, the activity of the microplate well-bound enzyme was measured by adding the substrate. Color development and absorbance at 405 nm were read.

[4] = test system: Trop-2 positive breast cancer cell line MDA-MB-468; assay: Internalization assay by flow cytometry (Example 2 protocol); type: cell-based, human; details: Table 4; chimeric IgGs; 2 hours at 37° C.; 100 × (MFI4°C - MFI37°C) / MFI4°C
Procedure: The chimeric IgG1 #118-2-5 and #125-1-5 were further evaluated by internalization assay using Trop-2 positive breast cancer cell line MDA-MB-468. MDA-MB-468 cells were seeded at 1×10^5 cell/well. Next, the chimeric or benchmark IgGs were added to cells in FACS buffer and incubated for 2 hours at 4° C. After incubation, the cells were washed to remove unbound antibody. The cells were then incubated at 37° C. After 2 hours, the cells were dissociated and stained with fluorescent-conjugated […] secondary antibodies for 30 minutes on ice in dark before being analyzed using Beckman flow cytometry system. The fluorescent intensity and cell binding percentage at each time point were analyzed by Beckman flow cytometric software. The amount of chimeric IgGs internalized into cells was determined using the following formula: % internalization rate = 100 × (MFI4°C - MFI37°C) / MFI4°C.

human Trop-2ECD-6His = biological target: T4, human Trop-2ECD-6His (Homo sapiens, UniProt P09758); assay: Cross-reactivity ELISA, human Trop-2; type: binding; details: plate coated with 1 µg/mL antigen
T4 construct: made in house; host or cells: human 293 cell line
T4 sequence (P09758 with tags, fused parts or gaps): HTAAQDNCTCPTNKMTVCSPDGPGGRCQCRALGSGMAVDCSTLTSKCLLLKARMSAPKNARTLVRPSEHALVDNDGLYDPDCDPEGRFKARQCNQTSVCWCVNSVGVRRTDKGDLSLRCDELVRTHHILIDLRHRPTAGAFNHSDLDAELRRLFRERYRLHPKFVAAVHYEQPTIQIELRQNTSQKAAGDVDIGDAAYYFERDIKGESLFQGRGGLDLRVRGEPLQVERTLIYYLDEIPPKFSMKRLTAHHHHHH
Procedure: (§1) Cross-reactivity of chimeric IgG #118-2-5 and #125-1-5 to the Trop-2 antigens from different species was assessed by ELISA. In this experiment, a microtiter plate was coated overnight at 4° C. with 50 µL/well of 1 µg/mL human Trop-2ECD-6His, mouse Trop-2-His, cynomolgus Trop-2-His, human EPCAM-His, and a non-related protein. The plate was washed and blocked for 1 hr at 37° C., and then washed with wash buffer. Purified chimeric IgGs appropriately diluted in PBS were added to wells and incubated for 1 hr at 37° C. After washing, bound antibodies were detected using HRP-conjugated goat-anti-human IgG Ab. Color development and absorbance at OD450 nm were read. A non-specific mock mouse IgG and a non-specific mock human IgG were included as the negative controls, while anti-His antibody was used as a positive control.
(§2) The cross-reactivity of purified IgGs to the Trop-2 antigens from different species was tested by ELISA. In this experiment, a microtiter plate was coated overnight at 4° C. with 50 µL/well of 1 µg/mL human Trop-2ECD-6His, mouse Trop-2-His, cynomolgus Trop-2-His, human EPCAM-His, and a non-related protein. The plate was washed and blocked for 1 hr at 37° C., and then washed with wash buffer. […] After washing, bound antibodies were detected using HRP-conjugated goat-anti-human IgG antibody. Color development and absorbance at OD450 nm were read. […]

cynomolgus Trop-2-His = assay: Cross-reactivity ELISA, cynomolgus Trop-2; type: binding; details: plate coated with 1 µg/mL antigen
Procedure: as §1, §2

mouse Trop-2-His [5] = biological target: T5, mouse Trop-2-His (Mus musculus, UniProt Q8BGV3); assay: Cross-reactivity ELISA, mouse Trop-2; type: binding; details: plate coated with 1 µg/mL antigen
T5 sequence (Q8BGV3 25-317): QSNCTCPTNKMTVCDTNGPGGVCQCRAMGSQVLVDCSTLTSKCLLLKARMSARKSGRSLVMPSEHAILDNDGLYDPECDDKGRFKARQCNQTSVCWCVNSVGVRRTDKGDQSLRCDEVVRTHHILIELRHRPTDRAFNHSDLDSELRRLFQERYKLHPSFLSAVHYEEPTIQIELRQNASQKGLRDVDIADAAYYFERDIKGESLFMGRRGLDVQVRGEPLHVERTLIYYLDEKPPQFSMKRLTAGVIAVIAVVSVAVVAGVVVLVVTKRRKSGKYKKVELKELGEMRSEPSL
Procedure: as §1
(§3) The cross-reactivity of purified IgGs to the Trop-2 antigens from different species was tested by ELISA. In this experiment, a microtiter plate was coated overnight at 4° C. with 50 µL/well of 1 µg/mL human Trop-2ECD-6His, mouse Trop-2-His, cynomolgus Trop-2-His, human EPCAM-His, and a non-related protein. The plate was washed and blocked for 1 hr at 37° C., and then washed with wash buffer. Purified anti-Trop-2 antibodies appropriately diluted in PBS were added to wells and incubated for 1 hour at 37° C. After washing, bound antibodies were detected using HRP-conjugated goat-anti-human IgG antibody. Color development and absorbance at OD450 nm were read. A non-specific human IgG1 was included as a negative control, while hRS7 was used as a positive control.

human EPCAM-His [6] = biological target: T6, human EPCAM-His (Homo sapiens, UniProt P16422); assay: Cross-reactivity ELISA, human EPCAM; type: binding; details: plate coated with 1 µg/mL antigen
T6 sequence (P16422 24-314): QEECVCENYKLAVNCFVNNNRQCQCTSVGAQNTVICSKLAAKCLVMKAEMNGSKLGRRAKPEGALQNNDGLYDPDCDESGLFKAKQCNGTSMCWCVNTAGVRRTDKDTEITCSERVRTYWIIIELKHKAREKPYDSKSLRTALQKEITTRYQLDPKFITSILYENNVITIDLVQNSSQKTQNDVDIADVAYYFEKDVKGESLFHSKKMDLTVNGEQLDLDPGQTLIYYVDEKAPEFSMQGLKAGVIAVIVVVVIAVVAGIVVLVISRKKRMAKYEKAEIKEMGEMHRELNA
Procedure: as §1, §3

non-related protein = assay: Cross-reactivity ELISA, non-related protein; type: binding; details: plate coated with 1 µg/mL protein
Procedure: as §1, §3

[7] = biological target: human Trop-2 on Trop-2 positive cancer cells (human) (UniProt P09758); assay: cell-based or functional assay
[8] = biological target: T7, human Trop-2-ECD-6His fusion protein (human, UniProt P09758 27-274); assay: antigen binding ELISA on immobilized human Trop-2-ECD-6His
T7 construct: Expressed in a human 293 cell line; also called huTrop-2; human Trop-2 antigen
T7 sequence: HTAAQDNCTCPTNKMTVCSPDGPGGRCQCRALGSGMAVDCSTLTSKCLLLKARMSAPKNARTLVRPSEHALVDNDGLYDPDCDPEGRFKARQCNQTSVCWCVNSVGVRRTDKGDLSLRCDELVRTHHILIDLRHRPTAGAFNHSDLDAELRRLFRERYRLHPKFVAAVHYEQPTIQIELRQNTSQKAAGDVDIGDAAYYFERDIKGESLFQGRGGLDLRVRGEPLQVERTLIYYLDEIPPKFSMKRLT

B1: murine-human chimeric IgG1 #125-1-5 (antibody, V domains shown)
VH: QIQLVQSGPELVKPGASVKMSCKASGYTFTTYVIHWVKQKPGQGLEWIGYINPNNDGTKYNEKFKGKATLISDKSSTTAYMEVRGLTSEDSAVYYCARPHFETHAMDYWGQGTSVTVSS
VL: DIQMTQSPSSFSVSLGDSVTITCKASEDIFNRLAWYQQKPGNAPRLLISGATSLETGVPSRFSGGGSGKEYTLSITSLQNEDVATYYCQQYWNTWTFGGGTKLEIKR
notes: Chimeric IgG1 expressed in HEK293-6E cells
- binding result (mouse Trop-2-His [1]): no binding
- binding result (human EPCAM-His [2]): no binding

B2: #125-1-5 (antibody, listed as Mus musculus, V domains shown)
VH: QIQLVQSGPELVKPGASVKMSCKASGYTFTTYVIHWVKQKPGQGLEWIGYINPNNDGTKYNEKFKGKATLISDKSSTTAYMEVRGLTSEDSAVYYCARPHFETHAMDYWGQGTSVTVSS
VL: DIQMTQSPSSFSVSLGDSVTITCKASEDIFNRLAWYQQKPGNAPRLLISGATSLETGVPSRFSGGGSGKEYTLSITSLQNEDVATYYCQQYWNTWTFGGGTKLEIK
- OD value, Conditioned Medium 1 to 1 ratio ([3]; Table 3, ELISA absorbance at 405 nm, 1 to 1 ratio): 1.572
- OD value, Conditioned Medium 1 to 10 ratio ([3]; Table 3, ELISA absorbance at 405 nm, 1 to 10 ratio): 1.539
- binding affinity to Trop 2 compared with benchmark hRS7 ([3]; in words, chimeric IgGs, see OD value in Table 3): higher binding affinity than the benchmark reference antibody hRS7
- Internalization rate [4]: 4.70%
- binding to human Trop-2 antigen (ELISA, OD450 nm) (human Trop-2ECD-6His): able to bind
- binding to cynomolgus Trop-2 antigen (ELISA, OD450 nm) (cynomolgus Trop-2-His): able to bind
- recognition of mouse Trop-2 (ELISA, OD450 nm) (mouse Trop-2-His [5]): did not recognize
- recognition of hEPCAM (ELISA, OD450 nm) (human EPCAM-His [6]): did not recognize
- recognition of the non-related protein (ELISA, OD450 nm) (non-related protein): did not recognize

B3: humanized IgG #118-2-5 Hu(A1)/LuX (antibody, V domains shown)
VH: QVQLQESGPGLVKPSETLSLTCTVSGFSLTSYGVNWIRQPPGKGLEWIGVMWAGGSTNYNSALMSRVTISVDTSKNQFSLKLSSVTAADTAVYYCARDENWDGAWFAYWGQGTLVTVSS
VL: DIVMTQSPDSLAVSLGERATINCKSSQSLLNSGTRKNYLAWYQQKPGQPPKLLIYWASSRESGVPDRFSGSGSGTDFTLTISSLQAEDVAVYYCKQSYNLFTFGGGTKVEIK
notes: Second round of humanization
- Internalization rate (flow cytometry, MDA-MB-468 cells) [7]: 56%
- EC50 [8]: 0.28 nM
